Data taken from patent US20220056141A1 (DEUTSCHES KREBSFORSCHUNGSZENTRUM STIFTUNG DES OFFENTLICHEN …, published 2022).

T1: His tagged, recombinant FLT3 protein (Sino Biologicals) (human, UniProt P36888 27-541, limits assumed)
T1 construct: Bought protein; also called soluble recombinant FLT3 protein; not shown: His tag
T1 sequence (looked up): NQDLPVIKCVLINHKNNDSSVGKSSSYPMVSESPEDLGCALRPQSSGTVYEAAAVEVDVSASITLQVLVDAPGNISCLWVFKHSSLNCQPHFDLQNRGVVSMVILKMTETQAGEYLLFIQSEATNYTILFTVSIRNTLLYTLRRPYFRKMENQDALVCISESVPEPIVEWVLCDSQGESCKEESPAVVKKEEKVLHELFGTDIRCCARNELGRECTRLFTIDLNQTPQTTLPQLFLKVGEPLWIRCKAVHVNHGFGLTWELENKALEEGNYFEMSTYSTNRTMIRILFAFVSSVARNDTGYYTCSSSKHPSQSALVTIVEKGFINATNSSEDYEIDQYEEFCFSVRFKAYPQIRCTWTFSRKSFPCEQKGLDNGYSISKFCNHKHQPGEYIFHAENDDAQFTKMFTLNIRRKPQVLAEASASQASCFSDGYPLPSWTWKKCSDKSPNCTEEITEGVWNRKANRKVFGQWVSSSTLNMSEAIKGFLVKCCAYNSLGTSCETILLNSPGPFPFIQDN

T2: FLT3 on Nalm16 cells (human, UniProt P36888 27-993)
T2 construct: whole, on cells; Endogenous FLT3 of the NALM16 leukemia cell line; also called NALM16 (FLT3+); NALM-16 cells expressing FLT3
T2 sequence (looked up): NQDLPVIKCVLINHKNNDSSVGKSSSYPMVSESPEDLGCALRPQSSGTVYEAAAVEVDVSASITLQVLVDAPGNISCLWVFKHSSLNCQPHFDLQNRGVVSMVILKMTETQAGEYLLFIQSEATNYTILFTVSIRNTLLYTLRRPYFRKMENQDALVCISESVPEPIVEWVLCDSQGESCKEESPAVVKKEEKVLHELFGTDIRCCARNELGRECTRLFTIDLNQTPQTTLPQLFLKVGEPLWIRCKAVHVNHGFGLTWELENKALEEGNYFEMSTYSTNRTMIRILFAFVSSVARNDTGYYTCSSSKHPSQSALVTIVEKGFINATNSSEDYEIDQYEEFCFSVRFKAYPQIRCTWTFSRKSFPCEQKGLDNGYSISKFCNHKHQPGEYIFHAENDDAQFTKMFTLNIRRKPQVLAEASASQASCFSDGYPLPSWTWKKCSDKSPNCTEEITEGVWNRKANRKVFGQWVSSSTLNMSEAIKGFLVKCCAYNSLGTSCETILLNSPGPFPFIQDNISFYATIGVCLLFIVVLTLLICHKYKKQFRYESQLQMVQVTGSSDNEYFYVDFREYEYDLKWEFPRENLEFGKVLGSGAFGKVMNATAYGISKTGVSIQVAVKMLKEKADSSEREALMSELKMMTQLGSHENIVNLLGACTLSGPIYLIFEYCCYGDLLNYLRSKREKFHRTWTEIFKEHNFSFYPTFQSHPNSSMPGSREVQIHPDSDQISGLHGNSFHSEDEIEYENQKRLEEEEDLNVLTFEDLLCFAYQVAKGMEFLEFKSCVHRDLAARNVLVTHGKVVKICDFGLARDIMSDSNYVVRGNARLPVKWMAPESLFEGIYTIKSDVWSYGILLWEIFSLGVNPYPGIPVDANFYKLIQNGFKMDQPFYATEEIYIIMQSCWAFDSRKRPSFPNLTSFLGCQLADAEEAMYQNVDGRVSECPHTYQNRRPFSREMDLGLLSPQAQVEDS


Tests used:
CD3 on Jurkat cells = molecular target: T3, CD3 on Jurkat cells (human, UniProt P07766 23-207); experiment: flow cytometry (value under the bar; by the legend the EC50 of the binding to Jurkat cells of FIG. 6)
T3 construct: whole, on cells; also called Jurkat (CD3+); human cluster of differentiation 3 (CD3) antigen
Procedure: (§1) In addition, antibody binding affinity was also tested using binding of the antibody to its target(s) as expressed on cells. Analyzed is the binding of CC-2 variants to Nalm16 cells expressing FLT3 (FIG. 4) or Jurkat cells expressing CD3 (FIG. 6). Variants V1 to V9 (with V6 being V6-V6) were produced after transient transfection of CHO cells using the insert sequences listed above. The antibodies were purified by protein A affinity- and size exclusion-chromatography. […] To measure antibody binding to FLT3 and CD3 NALM16 (FLT3+) and Jurkat (CD3+) cells were incubated with the respective variants for 30 min, washed, stained with a goat anti human Fcγ-specific and PE-conjugated secondary antibody (Jackson Immuno Research), washed again and analyzed by flow cytometry (FACSCalibur, BD Biosciences).

[1] = molecular target: T1, His tagged, recombinant FLT3 protein …; experiment: SPR (Biacore X); antibody captured on protein A chip, His-tagged recombinant FLT3 in solution
Procedure: FIG. 3 depicts binding of different CC-2 variants to soluble recombinant FLT3 protein. Respective antibody variants were immobilized to a Biacore chip coated with protein A and binding of His tagged, recombinant FLT3 protein (Sino Biologicals) was determined using a Biacore X instrument (GE Healthcare). Shown are the results of various mutated variants of the FLT3 antigen binding domain (V1 to V5).
In FIG. 3 the binding of different FLT3 binding domain variants V1 to V5 as indicated above was tested for their dissociation constant using a soluble recombinant FLT3 protein. Respective antibody variants were immobilized to a Biacore chip coated with protein A and binding of His tagged, recombinant FLT3 protein (Sino Biologicals) was determined using a Biacore X instrument (GE Healthcare).

FLT3 on Nalm16 cells = molecular target: T2, FLT3 on Nalm16 cells; experiment: flow cytometry (row 'EC50, FACS binding' under the bars; binding to NALM16 cells of FIG. 4)
Procedure: as §1

T3 sequence (P07766 23-207): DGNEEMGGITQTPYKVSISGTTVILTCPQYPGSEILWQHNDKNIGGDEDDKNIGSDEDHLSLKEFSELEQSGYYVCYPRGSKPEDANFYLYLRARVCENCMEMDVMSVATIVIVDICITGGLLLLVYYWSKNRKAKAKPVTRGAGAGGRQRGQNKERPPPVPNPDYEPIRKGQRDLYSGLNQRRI

Binder | EC50 (CD3 on Jurkat cells) [nM] | Kd [1] [nM] | koff [1] [s⁻¹] | kon [1] [M⁻¹ s⁻¹] | EC50 (FLT3 on Nalm16 cells) [nM]
bispecific FLT3xCD3 IgGsc antibody V6-V8 (bispecific antibody, Fc-attenuated IgGsc format; also called CC-2 V8) heavy: QVQLQQPGAELVKPGASLKLSCKSSGYTFTSYWMHWVRQRPGHGLEWIGEIDPSDSYKDYNQKFKDKATLTVDRSSNTAYMHLSSLTSDDSAVYYCARAITTTPFDFWGQGTTLTVSSASTKGPSVFPLAPSSKSTSGGTAALGCLVKDYFPEPVTVSWNSGALTSGVHTFPAVLQSSGLYSLSSVVTVPSSSLGTQTYICNVNHKPSNTKVDKKVEPKSCDKTHTCPPCPAPPVAGPSVFLFPPKPKDTLMISRTPEVTCVVVGVSHEDPEVKFNWYVDGVEVHNAKTKPREEQYNSTYRVVSVLTVLHQDWLNGKEYKCKVSNKQLPSPIEKTISKAKGQPREPQVYTLPPSRDELTKNQVSLTCLVKGFYPSDIAVEWESNGQPENNYKTTPPVLDSDGSFFLYSKLTVDKSRWQQGNVFSCSVMHEALHNHYTQKSLSLSPGKSGDIQMTQSPSSLSASVGDRVTITCRASQDIRNYLNWYQQKPGKAPKLLIYYTSRLESGVPSRFSGSGSGTDYTLTISSLQPEDFATYYCQQGNTLPWTFGQGTKVEIKGGGGSGGGGSGGGGSEVQLVESGGGLVQPGGSLRLSCAASGYSFTGYTMNWVRQAPGKGLEWVALINPYKGVSTYNQKFKDRFTISVDDSKNTAYLQMNSLRAEDTAVYYCARSGYYGDSDWYFDVWGQGTLVTVSS light: DIVLTQSPATLSVTPGDSVSLSCRASQSISNNLHWYQQKSHESPRLLIKYASQSISGIPSRFSGSGSGTDFTLSINSVETEDFGVYFCQQSNTWPYTFGGGTKLEIKRTVAAPSVFIFPPSDEQLKSGTASVVCLLNNFYPREAKVQWKVDNALQSGNSQESVTEQDSKDSTYSLSSTLTLSKADYEKHKVYACEVTHQGLSSPVTKSFNRGEC | 92 | – | – | – | –
bispecific FLT3xCD3 IgGsc antibody V6-V7 (bispecific antibody, Fc-attenuated IgGsc format; also called CC-2 V7) heavy: QVQLQQPGAELVKPGASLKLSCKSSGYTFTSYWMHWVRQRPGHGLEWIGEIDPSDSYKDYNQKFKDKATLTVDRSSNTAYMHLSSLTSDDSAVYYCARAITTTPFDFWGQGTTLTVSSASTKGPSVFPLAPSSKSTSGGTAALGCLVKDYFPEPVTVSWNSGALTSGVHTFPAVLQSSGLYSLSSVVTVPSSSLGTQTYICNVNHKPSNTKVDKKVEPKSCDKTHTCPPCPAPPVAGPSVFLFPPKPKDTLMISRTPEVTCVVVGVSHEDPEVKFNWYVDGVEVHNAKTKPREEQYNSTYRVVSVLTVLHQDWLNGKEYKCKVSNKQLPSPIEKTISKAKGQPREPQVYTLPPSRDELTKNQVSLTCLVKGFYPSDIAVEWESNGQPENNYKTTPPVLDSDGSFFLYSKLTVDKSRWQQGNVFSCSVMHEALHNHYTQKSLSLSPGKSGDIQMTQSPSSLSASVGDRVTITCRASQDIRNYLNWYQQKPGKAPKLLIYYTSRLESGVPSRFSGSGSGTDYTLTISSLQPEDFATYYCQQGNTLPWTFGQGTKVEIKGGGGSGGGGSGGGGSEVQLVESGGGLVQPGGSLRLSCAASGYSFTGYTMNWVRQAPGKGLEWVALINPYKGVSTYADSFKGRFTISVDDSKNTAYLQMNSLRAEDTAVYYCARSGYYGDSDWYFDVWGQGTLVTVSS light: DIVLTQSPATLSVTPGDSVSLSCRASQSISNNLHWYQQKSHESPRLLIKYASQSISGIPSRFSGSGSGTDFTLSINSVETEDFGVYFCQQSNTWPYTFGGGTKLEIKRTVAAPSVFIFPPSDEQLKSGTASVVCLLNNFYPREAKVQWKVDNALQSGNSQESVTEQDSKDSTYSLSSTLTLSKADYEKHKVYACEVTHQGLSSPVTKSFNRGEC | 496 | – | – | – | –
bispecific FLT3xCD3 IgGsc antibody V2-V6 (CC-2 variant 2) (bispecific antibody, Fc-attenuated IgGsc format; also called Version 2; CC-2 V2) heavy: QVQLVQSGAEVKKPGGSLRLSCAASGYTFTSYWMHWVRQAPGQGLEWIGEIDPSDSYTDYAQKFKDRVTISRDTSKNTLYLQLSSLRAEDTAVYYCARAITTTPFDFWGQGTLVTVSSASTKGPSVFPLAPSSKSTSGGTAALGCLVKDYFPEPVTVSWNSGALTSGVHTFPAVLQSSGLYSLSSVVTVPSSSLGTQTYICNVNHKPSNTKVDKKVEPKSCDKTHTCPPCPAPPVAGPSVFLFPPKPKDTLMISRTPEVTCVVVGVSHEDPEVKFNWYVDGVEVHNAKTKPREEQYNSTYRVVSVLTVLHQDWLNGKEYKCKVSNKQLPSPIEKTISKAKGQPREPQVYTLPPSRDELTKNQVSLTCLVKGFYPSDIAVEWESNGQPENNYKTTPPVLDSDGSFFLYSKLTVDKSRWQQGNVFSCSVMHEALHNHYTQKSLSLSPGKSGDIQMTQSPSSLSASVGDRVTITCRASQDIRNYLNWYQQKPGKAPKLLIYYTSRLESGVPSRFSGSGSGTDYTLTISSLQPEDFATYYCQQGNTLPWTFGQGTKVEIKGGGGSGGGGSGGGGSEVQLVESGGGLVQPGGSLRLSCAASGYSFTGYTMNWVRQAPGKGLEWVALINPYKGVSTYNQKFKDRFTISVDKSKNTAYLQMNSLRAEDTAVYYCARSGYYGDSDWYFDVWGQGTLVTVSS light: not shown | – | 88000 | 0.0318 | 540 | 10
bispecific FLT3xCD3 IgGsc antibody V1-V6 (CC-2 variant 1) (bispecific antibody, Fc-attenuated IgGsc format: VH-CH1-CH2mod-CH3-scFv(UCHT1 V6) heavy chain and VL-CL light chain; also called Version 1; CC-2 V1) heavy: QVQLVQSGAEVKKPGGSLRLSCAASGYTFTSYWMHWVRQAPGQGLEWIGEIDPSDSYTDYAQKFKDRVTISRDTSKNTLYLQLSSLRAEDTAVYYCARAITTTPFDFWGQGTLVTVSSASTKGPSVFPLAPSSKSTSGGTAALGCLVKDYFPEPVTVSWNSGALTSGVHTFPAVLQSSGLYSLSSVVTVPSSSLGTQTYICNVNHKPSNTKVDKKVEPKSCDKTHTCPPCPAPPVAGPSVFLFPPKPKDTLMISRTPEVTCVVVGVSHEDPEVKFNWYVDGVEVHNAKTKPREEQYNSTYRVVSVLTVLHQDWLNGKEYKCKVSNKQLPSPIEKTISKAKGQPREPQVYTLPPSRDELTKNQVSLTCLVKGFYPSDIAVEWESNGQPENNYKTTPPVLDSDGSFFLYSKLTVDKSRWQQGNVFSCSVMHEALHNHYTQKSLSLSPGKSGDIQMTQSPSSLSASVGDRVTITCRASQDIRNYLNWYQQKPGKAPKLLIYYTSRLESGVPSRFSGSGSGTDYTLTISSLQPEDFATYYCQQGNTLPWTFGQGTKVEIKGGGGSGGGGSGGGGSEVQLVESGGGLVQPGGSLRLSCAASGYSFTGYTMNWVRQAPGKGLEWVALINPYKGVSTYNQKFKDRFTISVDKSKNTAYLQMNSLRAEDTAVYYCARSGYYGDSDWYFDVWGQGTLVTVSS light: not shown | – | 63000 | 0.022 | 489 | > 10
